In test [1] the target is Large subunit-rSCFV5 fusion protein. Briefly: cell-based or functional assay.
The target is the same in test [2]. As to the kind of experiment: cell-based or functional assay. The source holds these as a separate data set.
Test [3] has the same target. Briefly: cell-based or functional assay. This is another data set of the same source.
Test [4] shares this target. Briefly: cell-based or functional assay. The source holds these as a separate data set.
Test [5] shares this target. As to the kind of experiment: cell-based or functional assay. The source holds these as a separate data set.
For test [6], the target named is T1, Recombinant human IL6 protein with C-terminal six-histidine tag (human, UniProt P05231 29-212).
T1 construct: also called human interleukin 6
Briefly: homogeneous split-luciferase sandwich with OL-453, signal rises with IL6.

Test [7] concerns the target T1, Recombinant human IL6 protein with …. Briefly: homogeneous split-luciferase sandwich with RB073-449-1, signal rises with IL6.

Read-outs that look alike come from different tables or passages of the source.

B1: rSCFV18-small subunit P114 fusion protein (other)
chain: AHHHHHHGSGDIVLTQTPSPVSAAVGGTVSINCQSSQSVYKNNRLSWYQQKPGQPPKFLIYDTSKLASGVPSRFSGSGSGTQFTLTISDLECDDAATYYCAGGYSNNIGAFGGGTEVVVKSSGGGGSGGGGGGSSRSSQSLEESRGRLVTPGGSLTLTCSVSGFSLSIYNMGWVRQAPGEGLEWIGVIGSSGNTYYASWAKGRFTISRNTNDNTVDLKITSPTTGDTATYFCARGFSSFDIWGPGTLVTVSSGGGGSGGGGSGGGGSVTGYRLFEEIL
In the case of B1, the “Signal-to-noise ratio at 1000 pg/ml” value in test [1] is 3.8; in test [2], 1.44; in test [4], 3.8. Besides, the Signal-to-noise ratio was 1.9 in test [3] and 12.2 in test [5].

B2: rSCFV18-RB073 fusion protein (other)
chain: AHHHHHHGSGDIVLTQTPSPVSAAVGGTVSINCQSSQSVYKNNRLSWYQQKPGQPPKFLIYDTSKLASGVPSRFSGSGSGTQFTLTISDLECDDAATYYCAGGYSNNIGAFGGGTEVVVKSSGGGGSGGGGGGSSRSSQSLEESRGRLVTPGGSLTLTCSVSGFSLSIYNMGWVRQAPGEGLEWIGVIGSSGNTYYASWAKGRFTISRNTNDNTVDLKITSPTTGDTATYFCARGFSSFDIWGPGTLVTVSSGGGGSGGGGSGGGGSVEGYRLFDRKS
As to B2, the entries for the “Signal-to-noise ratio at 1000 pg/ml” value in test [2] and in test [4] were 38.9 and 14.5, respectively. Besides, the Signal-to-noise ratio in test [5] was found to be 48.

B3: fusion protein RB073-449-1 of the small subunit peptide RB073 with human IL6 SCFV antibody 449-1 (other)
chain: VEGYRLFDRKSGGGGSGGGGSGGGGSQSALTQPSSVSKSLGQSVSITCSGSSSNVGYGNYVSWYQQVPGSAPKFLIYGATSRASGVPARFSGSRSGNTATLSISSLQAEDEADYYCASYDSSSYGVFGSGTTLTVLSSGGGGSGGGGGGSSRSSQVRLQESGPSLVKPSQTLSLTCTVSGFSLTNYPVGWVRQAPGKALEWLGGISSGGGTAYNPALKSRLSFTRDTSKNQVSLSLSSVTSEDTAVYYCTRGNGDYVLRYGADVWGRGLLVTVSSGSGHHHHHH
notes: also called small subunit fusion protein RB073-449-1
For the molecule B3, in test [6], the binding result is reported as “binds”.

B4: fusion protein OL-453 of the large subunit with human IL6 SCFV antibody 453 (other)
chain: VFTLEDFVGDWEQTAAYNLDQVLEQGGVSSLLQNLAVSVTPIQRIVRSGENALKIDIHVIIPYEGLSADQMAQIEEVFKVVYPVDDHHFKVILPYGTLVIDGVTPNMLNYFGRPYEGIAVFDGKKITVTGTLWNGNKIIDERLITPDGSMLFRVTINSGSSGGGGSGGGGSGGQAVLTQPSSVSKSLGQSVSITCSGSNIGSSAVGWYQQLPGSGLKTIIYSTSSRPSGVPDRFSGSKSGNTATLTISSLQAEDEADYYCATGDRGNYGGVFGSGTRLTVLSSGGGGSGGGGGGSSRSSQVQLQESGPSLVKPSQTLSLTCTVSGFSLTSYGVGWVRQAPGKTPEWLGGIDRDGDMSYNPALKSRLSITRDTSKSQVSLSLRSVATEDTAVYYCARSSYDSHYYGDYYDVDVWGRGLLVTVSSGQAGHHHHHH
notes: also called large subunit fusion protein OL-453
Regarding B4, the binding result in test [7] is reported as “binds”.

The values are drawn from patent EP4700040A1 (Shenzhen Loggene Life Science & Technology Co., Ltd., dated 2024).
